Laboratory results published in paper PMC3771917, “The Crystal Structure of the Orphan Nuclear Receptor NR2E3/PNR Ligand Binding Domain Reveals a Dimeric Auto-Repressed Conformation” (PLoS ONE, 2013).

B1: NR2E3 LBD (residues 192-410), wild type, as Gal4DBD–NR2E3LBD and VP16AD–NR2E3LBD [human] / itself (parent complex)
chain: DENIDVTSNDPEFPSSPYSSSSPCGLDSIHETSARLLFMAVKWAKNLPVFSSLPFRDQVILLEEAWSELFLLGAIQWSLPLDSCPLLAPPEASAAGGAQGRLTLASMETRVLQETISRFRALAVDPTEFACMKALVLFKPETRGLKDPEHVEALQDQSQVMLSQHSKAHHPSQPVRFGKLLLLLPSLRFITAERIELLFFRKTIGNTPMEKLLCDMFKN

Variants of: B1
Experiment: mammalian two hybrid assay; pBind-PNR L372/375R + pACT-PNR L372/375R; parent: 0.42; read off a plot

response [RLU] | Variant
~0.055 | DENIDVTSNDPEFPSSPYSSSSPCGLDSIHETSARLLFMAVKWAKNLPVFSSLPFRDQVILLEEAWSELFLLGAIQWSLPLDSCPLLAPPEASAAGGAQGRLTLASMETRVLQETISRFRALAVDPTEFACMKALVLFKPETRGLKDPEHVEALQDQSQVMLSQHSKAHHPSQPVRFGKLRLLRPSLRFITAERIELLFFRKTIGNTPMEKLLCDMFKN [chain 1 L181R, chain 1 L184R]

Variants of: B1
Experiment: mammalian two hybrid assay; pBind-PNR L372R + pACT-PNR L372R; parent: 0.42; read off a plot

response [RLU] | Variant
~0.045 | DENIDVTSNDPEFPSSPYSSSSPCGLDSIHETSARLLFMAVKWAKNLPVFSSLPFRDQVILLEEAWSELFLLGAIQWSLPLDSCPLLAPPEASAAGGAQGRLTLASMETRVLQETISRFRALAVDPTEFACMKALVLFKPETRGLKDPEHVEALQDQSQVMLSQHSKAHHPSQPVRFGKLRLLLPSLRFITAERIELLFFRKTIGNTPMEKLLCDMFKN [chain 1 L181R]

Variants of: B1
Experiment: mammalian two hybrid assay; pBind-PNR L375R + pACT-PNR L375R; parent: 0.42; read off a plot

response [RLU] | Variant
~0.045 | DENIDVTSNDPEFPSSPYSSSSPCGLDSIHETSARLLFMAVKWAKNLPVFSSLPFRDQVILLEEAWSELFLLGAIQWSLPLDSCPLLAPPEASAAGGAQGRLTLASMETRVLQETISRFRALAVDPTEFACMKALVLFKPETRGLKDPEHVEALQDQSQVMLSQHSKAHHPSQPVRFGKLLLLRPSLRFITAERIELLFFRKTIGNTPMEKLLCDMFKN [chain 1 L184R]
